Laboratory results as given in patent publication US20220387586A1.

Experiments:
[1] = biological target: cynomolgus LAG3 on cells (cynomolgus); assay: flow cytometry on activated cynomolgus PBMC, 10 µg/ml; control (only 2nd Ab (hu): 7.62)
[2] = biological target: human Fc tagged human Lag3 extra cellular domain (human) (UniProt P18627); assay: FACS, inhibition of biotinylated Lag3:Fc binding to MHC-II on A375 cells (competitor MHC-II); control at 10 µg/ml
Chain of human Fc tagged human Lag3 extra cellular domain (human) (P18627 29-450): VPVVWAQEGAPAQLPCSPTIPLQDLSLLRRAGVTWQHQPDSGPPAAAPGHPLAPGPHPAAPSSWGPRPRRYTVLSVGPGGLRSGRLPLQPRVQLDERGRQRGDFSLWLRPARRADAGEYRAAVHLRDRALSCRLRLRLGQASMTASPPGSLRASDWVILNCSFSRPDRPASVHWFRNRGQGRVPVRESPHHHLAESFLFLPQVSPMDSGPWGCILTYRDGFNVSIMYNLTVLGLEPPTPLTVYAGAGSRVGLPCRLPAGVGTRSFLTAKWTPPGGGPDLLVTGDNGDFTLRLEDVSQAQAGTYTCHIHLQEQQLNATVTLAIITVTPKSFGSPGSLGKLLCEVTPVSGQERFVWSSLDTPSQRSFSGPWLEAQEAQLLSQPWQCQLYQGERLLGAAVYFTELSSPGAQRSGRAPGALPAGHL

Row | % positive cyno cells (PBLs) after CD3/CD28 activation [1] | % Inhibition [2] | Substance
1 | 9.19% |  | DP47 (human isotype) (antibody)
2 |  | -2.9% | human IgG1 isotype control (Sigma, cat.no. #I5154) (antibody)
